# Data taken from the supplement of paper PMC5998384.
# Key:
# HeLa Kyoto [1] = assay: solubility change mitosis vs G1/S (difference of NP-40 vs SDS log2 ratios) (log2 ratio difference); higher = more soluble in mitosis
# HeLa Kyoto [2] = assay: thermal stability score vs G1/S (z-score of summed log2 fold changes over temperatures); higher = more thermally stable than in G1/S
# [3] = cell cycle stage: early G1 (4.5 h after nocodazole release)
# 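For solubility change mitosis vs G1/S (difference of NP-40 vs SDS log2 ratios) in this document: synchronized HeLa Kyoto cells (double thymidine block for G1/S, nocodazole release for mitosis), protein amounts in NP-40 versus SDS lysates quantified by mass spectrometry, three biological replicates.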
# 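For thermal stability score vs G1/S (z-score of summed log2 fold changes over temperatures) in this document: synchronized HeLa Kyoto cells, proteins quantified by TMT10plex mass spectrometry, three biological replicates, mitosis taken 0.5 h after nocodazole release, G1/S directly after double thymidine block.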
substance,measurement,setting,value
TFRC,solubility change mitosis (log2),HeLa Kyoto [1],-0.13
MRPL20,solubility change mitosis (log2),HeLa Kyoto [1],-0.0687
RPS18,solubility change mitosis (log2),HeLa Kyoto [1],0.385
SUPT6H,solubility change mitosis (log2),HeLa Kyoto [1],0.0526
MRPS35,solubility change mitosis (log2),HeLa Kyoto [1],0.0565
EEF2,solubility change mitosis (log2),HeLa Kyoto [1],-0.164
MRPS21,solubility change mitosis (log2),HeLa Kyoto [1],0.0482
RPL18,solubility change mitosis (log2),HeLa Kyoto [1],0.797
RPS13,solubility change mitosis (log2),HeLa Kyoto [1],0.484
MMCGAPSATQPATAETQHIADQVRSQLEEKENKKFPVFKAVSFKSQVVAGTNYFIKVHVGDEDFVHLRVFQSLPHENKPLTLSNYQTNKAKHDELTYF [CSTB],thermal stability score,HeLa Kyoto [2]; [3],-2.35
same,thermal stability score,HeLa Kyoto [2]; cell cycle stage: mitosis,-3.83
same,solubility change mitosis (log2),HeLa Kyoto [1],-0.077
MRPS6,solubility change mitosis (log2),HeLa Kyoto [1],0.0185
RPL13A,solubility change mitosis (log2),HeLa Kyoto [1],0.619
LDHA,solubility change mitosis (log2),HeLa Kyoto [1],-0.0758
SNCA,solubility change mitosis (log2),HeLa Kyoto [1],0.157
JMJD6,solubility change mitosis (log2),HeLa Kyoto [1],-0.18
STAM2,solubility change mitosis (log2),HeLa Kyoto [1],-0.173
TPRG1L,solubility change mitosis (log2),HeLa Kyoto [1],-0.205
MRPS24,solubility change mitosis (log2),HeLa Kyoto [1],-0.0858
MTKDKNSPGLKKKSQSVDINAPGFNPLAGAGKQTPQASKPPAPKTPIIEEEQNNAANTQKHPSRRSELKRFYTIDTGQKKTLDKKDGRRMSFQKPKGTIEYTVESRDSLNSIALKFDTTPNELVQLNKLFSRAVVTGQVLYVPDPEYVSSVESSPSLSPVSPLSPTSSEAEFDKTTNPDVHPTEATPSSTFTGIRPARVVSSTSEEEEAFTEKFLKINCKYITSGKGTVSGVLLVTPNNIMFDPHKNDPLVQENGCEEYGIMCPMEEVMSAAMYKEILDSKIKESLPIDIDQLSGRDFCHSKKMTGSNTEEIDSRIRDAGNDSASTAPRSTEESLSEDVFTESELSPIREELVSSDELRQDKSSGASSESVQTVNQAEVESLTVKSESTGTPGHLRSDTEHSTNEVGTLCHKTDLNNLEMAIKEDQIADNFQGISGPKEDSTSIKGNSDQDSFLHENSLHQEESQKENMPCGETAEFKQKQSVNKGKQGKEQNQDSQTEAEELRKLWKTHTMQQTKQQRENIQQVSQKEAKHKITSADGHIESSALLKEKQRHRLHKFLCLRVGKPMRKTFVSQASATMQQYAQRDKKHEYWFAVPQERTDHLYAFFIQWSPEIYAEDTGEYTREPGFIVVKKIEESETIEDSSNQAAAREWEVVSVAEYHRRIDALNTEELRTLCRRLQITTREDINSKQVATVKADLESESFRPNLSDPSELLLPDQIEKLTKHLPPRTIGYPWTLVYGTGKHGTSLKTLYRTMTGLDTPVLMVIKDSDGQVFGALASEPLKVSDGFYGTGETFVFTFCPEFEVFKWTGDNMFFIKGDMDSLAFGGGGGEFALWLDGDLYHGRSHSCKTFGNRTLSKKEDFFIQDIEIWAFE [OXR1],thermal stability score,HeLa Kyoto [2]; [3],-0.363
same,thermal stability score,HeLa Kyoto [2]; cell cycle stage: mitosis,-2.03
same,solubility change mitosis (log2),HeLa Kyoto [1],-0.176
HIST1H4A,solubility change mitosis (log2),HeLa Kyoto [1],0.331
MRPS11,solubility change mitosis (log2),HeLa Kyoto [1],-0.0467
RPS8,solubility change mitosis (log2),HeLa Kyoto [1],0.735
RPS9,solubility change mitosis (log2),HeLa Kyoto [1],0.434
VPS29,solubility change mitosis (log2),HeLa Kyoto [1],-0.224
ARPC2,solubility change mitosis (log2),HeLa Kyoto [1],-0.0639
MRPL30,solubility change mitosis (log2),HeLa Kyoto [1],0.00936
MALSKRELDELKPWIEKTVKRVLGFSEPTVVTAALNCVGKGMDKKKAADHLKPFLDDSTLRFVDKLFEAVEEGRSSRHSKSSSDRSRKRELKEVFGDDSEISKESSGVKKRRIPRFEEVEEEPEVIPGPPSESPGMLTKLQIKQMMEAATRQIEERKKQLSFISPPTPQPKTPSSSQPERLPIGNTIQPSQAATFMNDAIEKARKAAELQARIQAQLALKPGLIGNANMVGLANLHAMGIAPPKVELKDQTKPTPLILDEQGRTVDATGKEIELTHRMPTLKANIRAVKREQFKQQLKEKPSEDMESNTFFDPRVSIAPSQRQRRTFKFHDKGKFEKIAQRLRTKAQLEKLQAEISQAARKTGIHTSTRLALIAPKKELKEGDIPEIEWWDSYIIPNGFDLTEENPKREDYFGITNLVEHPAQLNPPVDNDTPVTLGVYLTKKEQKKLRRQTRREAQKELQEKVRLGLMPPPEPKVRISNLMRVLGTEAVQDPTKVEAHVRAQMAKRQKAHEEANAARKLTAEQRKVKKIKKLKEDISQGVHISVYRVRNLSNPAKKFKIEANAGQLYLTGVVVLHKDVNVVVVEGGPKAQKKFKRLMLHRIKWDEQTSNTKGDDDEESDEEAVKKTNKCVLVWEGTAKDRSFGEMKFKQCPTENMAREHFKKHGAEHYWDLALSESVLESTD [PRPF3],thermal stability score,HeLa Kyoto [2]; [3],0.798
same,thermal stability score,HeLa Kyoto [2]; cell cycle stage: mitosis,3.15
same,solubility change mitosis (log2),HeLa Kyoto [1],0.331
RPL26L1,solubility change mitosis (log2),HeLa Kyoto [1],0.994
UBA52,solubility change mitosis (log2),HeLa Kyoto [1],0.558
NAA40,solubility change mitosis (log2),HeLa Kyoto [1],0.145
RPL9,solubility change mitosis (log2),HeLa Kyoto [1],0.502
RPL22,solubility change mitosis (log2),HeLa Kyoto [1],0.576
RPS2,solubility change mitosis (log2),HeLa Kyoto [1],0.389
MAQPGTLNLNNEVVKMRKEVKRIRVLVIRKLVRSVGRLKSKKGTEDALLKNQRRAQRLLEEIHAMKELKPDIVTKSALGDDINFEKIFKKPDSTATERAIARLAVHPLLKKKIDVLKAAVQAFKEARQNVAEVESSKNASEDNHSENTLYSNDNGSNLQREATVISEQKVKETKILAKKPIHNSKEKIAKMEHGPKAVTIANSPSKPSEKDSVVSLESQKTPADPKLKTLSQTKKNKGSDSSLSGNSDGGEEFCEEEKEYFDDSTEERFYKQSSMSEDSDSGDDFFIGKVRRTRKKESSCHSSVKEQKPLEKVFLKEDTGETHGDTRNDKIKPSTETRKLESVFFHSLSGSKSSRRNFKEQAPKTRSLDFPQNEPQIKNQFNKKLSGRLENTKQQLQLPLHPSWEASRRRKEQQSNIAVFQGKKITFDD [SRFBP1],thermal stability score,HeLa Kyoto [2]; [3],-0.14
same,thermal stability score,HeLa Kyoto [2]; cell cycle stage: mitosis,-0.669
same,solubility change mitosis (log2),HeLa Kyoto [1],0.584
FAM175B,solubility change mitosis (log2),HeLa Kyoto [1],-0.114
RPS15,solubility change mitosis (log2),HeLa Kyoto [1],0.616
MRPS31,solubility change mitosis (log2),HeLa Kyoto [1],-0.0986
MRPS23,solubility change mitosis (log2),HeLa Kyoto [1],0.188
CTR9,solubility change mitosis (log2),HeLa Kyoto [1],-0.0445
PSEN1,solubility change mitosis (log2),HeLa Kyoto [1],0.045
